Experimental data: paper PMC12170339, “Cryo-EM structure of the NDH–PSI–LHCI supercomplex from Spinacia oleracea” (Nature Structural & Molecular Biology, 2025)

B1: NdhA (natural protein, S. oleracea, UniProt Q9M3I6 1-365, looked up)
chain: MIIDTTTTKVQAINSFSRLEFLKEVYETIWMLFPILILVLGITIGVLVIVWLEREISASIQQRIGPEYAGPLGILQALADGTKLLFKENLLPSRGDTYLFSIGPSIAVISILLGYLIIPFGSRLVLADLSIGVFLWIAVSSIAPIGLLMSGYGSNNKYSFLGGLRAAAQSISYEIPLTLCVLSISLLSNSSSTVDIVEAQSKYGFWGWNLWRQPIGFIVFIISSLAECERLPFDLPEAEEELVAGYQTEYSGIKFGLFYVASYLNLLISSLFVTVLYLGGWNLSIPYIFISEFFEINKIDGVFGTTIGIFITLAKTFLFLFIPITTRWTLPRLRMDQLLNLGWKFLLPISLGNLLLTTSSQLFSL
notes: NdhA, SubM module of chloroplast NDH, S. oleracea; also called NhdA; source: purified from spinach (S. oleracea) leaves as part of the NDH–PSI–LHCI-2 supercomplex

Columns and labels:
Test in all cases: cryo-EM structure; single-particle cryo-EM of the endogenous NDH–PSI–LHCI-2 supercomplex co-purified from spinach stromal lamellae in t-PCCαM; buffer A: 30 mM HEPES pH 7.8, 2 mM MgCl2, 2 mM KCl, 0.5 mM Na2-EDTA, 100 mM NaCl, 2 mM DTT, 0.04% t-PCCαM; 38,385 particles; 3.0–3.3 Å
[1] = target: NADPH dehydrogenase (NDH) complex (S. oleracea) (UniProt Q9M3I6)
NdhH = target: T1, NdhH (S. oleracea, UniProt Q9M3I5 1-393); settings: both partners purified
T1 construct: NdhH, SubA module of chloroplast NDH, S. oleracea; source: purified from spinach (S. oleracea) leaves as part of the NDH–PSI–LHCI-2 supercomplex
T1 sequence (looked up): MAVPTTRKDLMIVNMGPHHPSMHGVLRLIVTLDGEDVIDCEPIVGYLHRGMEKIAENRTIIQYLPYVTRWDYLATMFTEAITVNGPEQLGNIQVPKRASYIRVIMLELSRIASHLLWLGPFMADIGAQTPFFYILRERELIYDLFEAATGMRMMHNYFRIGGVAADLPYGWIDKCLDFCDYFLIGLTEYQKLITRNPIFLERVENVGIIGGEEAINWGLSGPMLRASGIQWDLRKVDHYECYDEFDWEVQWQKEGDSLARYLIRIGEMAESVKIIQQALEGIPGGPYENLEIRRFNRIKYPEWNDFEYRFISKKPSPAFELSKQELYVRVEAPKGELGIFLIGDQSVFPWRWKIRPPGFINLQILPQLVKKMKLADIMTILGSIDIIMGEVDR

NdhA = target: B1; settings: both partners purified
NdhK = target: T2, NdhK (S. oleracea, UniProt Q9M3M0 1-227); settings: both partners purified
T2 construct: NdhK, SubA module of chloroplast NDH, S. oleracea; source: purified from spinach (S. oleracea) leaves as part of the NDH–PSI–LHCI-2 supercomplex
T2 sequence (looked up): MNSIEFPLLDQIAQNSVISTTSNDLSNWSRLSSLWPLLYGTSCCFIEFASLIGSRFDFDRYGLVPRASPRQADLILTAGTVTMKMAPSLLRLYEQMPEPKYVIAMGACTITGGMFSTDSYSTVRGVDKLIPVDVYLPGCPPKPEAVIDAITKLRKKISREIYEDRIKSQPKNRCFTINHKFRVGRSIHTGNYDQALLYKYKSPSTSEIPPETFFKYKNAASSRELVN

Molecule | stoichiometry N (NDH per PSI–LHCI) [1] | binding result (NdhH) | binding result (NdhA) | binding result (NdhK)
PSI–LHCI-2 (photosystem I–light-harvesting complex I) (from UniProt P06511 1-750; P06512 1-734; P10098 1-81; P12353 51-212; P12355 78-231; P12357 70-167; P22179 50-144; P17228 1-33; P17230 1-44; P14627 1-29; Q41385 48-216) | 1 | – | – | –
NdhC (natural protein, S. oleracea, UniProt Q9M3L9 1-120, looked up, NdhC, SubM module of chloroplast NDH, S. oleracea; source: purified from spinach (S. oleracea) leaves as part of the NDH–PSI–LHCI-2 supercomplex) MFLLYEYDIFWAFLIISSVIPILAFLFSGILAPISKGPEKLSSYESGIEPMGDAWLQFRIRYYMFALVFVVFDVETVFLYPWAMSFDILGVSVFIEALIFVLILIVGLVYAWRKGALEWS | – | binds | binds | binds
B1 | – | binds | – | –
